Test results: patent US20130323249A1 (published 2013)

Tests used:
[1] = target: T1, human PD-L1 expressed on the surface of cells (human, UniProt Q9NZQ7 19-290); experiment: flow cytometry competition: CHO-PD-L1 cells pre-incubated with G12, then rhPD-1-Fc, detected with Alexa-Fluor 647 anti-PD-1 antibody
T1 construct: whole, on cells; also called CHO-PD-L1; PD-L1 on ES-2 ovarian carcinoma cells
Source text: Data points are shown as the median fluorescence detected in the FL-4H channel +/− Std Error.

PD-L1/Fc = target: T2, PD-L1/Fc (human, UniProt Q9NZQ7 19-238, limits assumed); experiment: competition ELISA: G12 IgG pre-mixed with PD-L1/Fc, binding to coated PD1/His detected with anti-human Fc HRP
T2 construct: also called rhPD-L1; not shown: Fc part (detected with anti-human Fc)
T2 sequence (Q9NZQ7 19-238 limits assumed): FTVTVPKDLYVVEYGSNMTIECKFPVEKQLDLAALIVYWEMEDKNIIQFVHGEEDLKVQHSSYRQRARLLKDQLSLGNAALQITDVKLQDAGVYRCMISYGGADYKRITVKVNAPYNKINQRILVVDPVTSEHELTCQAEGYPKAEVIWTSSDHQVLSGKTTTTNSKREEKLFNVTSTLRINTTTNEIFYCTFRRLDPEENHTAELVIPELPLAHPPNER
Experimental: A 96-well ELISA plate was coated with 1 ng/μL PD1/His at 4° C. overnight, then blocked with casein in PBS. […] Transferred 25 μl the mixtures to the ELISA plate and incubated 30 min with shaking. Washed 3 times with PBST. Added HRP conjugated Goat anti-human Fc (1:500 in casein), used TMB as substrate and developed 30 min. 2M H₂SO₄ was added to stop the reaction. Read the OD at 450 nm.

[2] = target: T1, human PD-L1 expressed on the surface of …; experiment: flow cytometry (Intellicyt HTFC) on ES-2 ovarian carcinoma cells treated with IFNγ for 18 hr, PE anti-human IgG detection
Experimental: (§1) After 0.5 hr incubation, cells were washed 1× with FACS Buffer and resuspended in 50 μl PE-conjugated, goat anti-human IgG (γ-chain specific) secondary antibody (Southern Biotech Cat #2040-09). Cells were further incubated for 0.5 hr and then washed 1× with FACS Buffer. Cells were resuspended in 25 μl FACS Buffer and the median fluorescence intensity in the FL2-H channel was determined using the Intellicyt HTFC flow cytometer.

[3] = target: T1, human PD-L1 expressed on the surface of …; experiment: flow cytometry (Intellicyt HTFC) on CHO-PD-L1 cells, PE anti-human IgG detection
Experimental: as §1

rhPD-L1 = target: T3, rhPD-L1 (human, UniProt Q9NZQ7 19-238, limits assumed); experiment: Biacore SPR, rhPD-L1 immobilized on CM5 chip, antibody in solution, 1:1 Langmuir fit
T3 construct: also called recombinant human PD-L1
T3 sequence (Q9NZQ7 19-238 limits assumed): as above
Experimental: All measurements were conducted in HBS-EP buffer with a flow rate of 30 μL/min. Antibody was diluted so as to obtain a series of concentrations. A 1:1 (Langmuir) binding model was used to fit the data.

T1 sequence (Q9NZQ7 19-290): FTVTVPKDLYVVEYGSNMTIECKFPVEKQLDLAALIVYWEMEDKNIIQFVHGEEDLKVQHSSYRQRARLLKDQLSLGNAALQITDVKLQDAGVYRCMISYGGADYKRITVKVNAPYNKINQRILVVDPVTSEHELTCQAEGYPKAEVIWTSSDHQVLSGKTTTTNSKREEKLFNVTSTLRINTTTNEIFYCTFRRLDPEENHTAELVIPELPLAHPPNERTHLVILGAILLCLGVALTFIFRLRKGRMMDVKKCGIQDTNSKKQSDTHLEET

IC50 [1]: 1.76 nM | IC50 (PD-L1/Fc): 0.0729 nM | EC50 [2]: 0.0458 nM | EC50 [3]: 1.71 nM | Kd (rhPD-L1): 0.0374 nM | koff (rhPD-L1): 0.00049 s⁻¹ | kon (rhPD-L1): 1.31e+07 M⁻¹ s⁻¹
B1: G12 anti-PD-L1 antibody (antibody, V domains shown)
VH: EVQLVQSGAEVKKPGASVKVSCKASGYTFTGYYMHWVRQAPGQGLEWMGWINPNSDNTGSAQKFQGRVFMTKTTSLNTAYMELSGLRSEDTAIYYCARERSSGYFDFWGQGTLVTVSS
VL: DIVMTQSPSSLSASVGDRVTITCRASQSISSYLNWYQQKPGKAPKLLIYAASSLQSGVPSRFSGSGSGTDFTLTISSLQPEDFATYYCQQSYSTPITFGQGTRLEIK
notes: Fully human antibody of an IgG class; detected with anti-human IgG gamma-chain specific secondary; also called anti-PD-L1 mAb G12
